Measurements published in publication PMC7817050 (PLoS Pathogens, 2021).

What was measured:
[1] = molecular target: T1, native, full-length VZV gB purified from VZV infected MeWo cells (varicella-zoster virus (parental Oka …, UniProt Q4JR05, N-linked glycosylation (sites in S4 Table))); test: cryo-EM structure; Fab fragments added in molar excess to native, full-length gB in TBS pH7.4 with Amphipol 8-35, overnight at +4°C; complexes purified on Superose-6 in TBS pH7.4; 200kV F20 microscope; conditions: both partners purified
T1 construct: VZV glycoprotein B (ORF31), parental Oka strain, residues up to 931; 71-residue signal peptide; native gB is cleaved by furin at 491RSRR494 into two fragments; residues 115-736 resolved in the cryo-EM structure; Held in Amphipol 8-35; also called glycoprotein B; native, full-length gB; not shown: V5, C-terminal, cleaved

[2] = molecular target: T2, VZV gB wild type expressed from pCAGGS-gB in CHO-DSP1 cells (varicella-zoster virus, UniProt Q4JR05); test: western blot; reducing, denaturing SDS-PAGE of anti-V5 immunoprecipitates from transfected CHO-DSP1 cells, blot probed with mAb 93k; conditions: one partner purified
T2 construct: VZV glycoprotein B (ORF31) expressed from pCAGGS-gB; detected by an antiserum to residues 833-846 of the cytoplasmic region; also called WT gB; gB-WT; source: CHO-DSP1, transfected (pCAGGS-gB), in lysate; also on fixed transfected cells

[3] = molecular target: the molecule itself; test: crystal structure; gB ectodomain; 0.1 M Na acetate pH 4.6, 20% PEG 400, 6% ethylene glycol, room temperature vapor diffusion
[4] = molecular target: the molecule itself; test: cryo-EM structure; native, full-length gB without antibody, in Amphipol 8-35, TBS pH7.4; 300kV Titan Krios; C3 symmetry imposed

B1: Fab fragment of the neutralizing human mAb 93k (Fab, V domains shown)
VH: QVQLVQSGAEVKKPGSSVKVSCKASGGTFSNFAISWVRQAPGQGLEWMGRIMPLFVTSTYAQKFQGRVTISADASTSTAYMELSSLRSDDTAMYYCARDITAPGAAPTPLNFYGMDVWGQGTTVTVSS
VL: DIQMTQSPSTLSASVGDRVTITCRASQTISTWLAWYQQTPRKAPKLMIYKASILENGVPSRFSGSGSGTEFTLTISSLQPEDFATYYCQQYKSYPWTFGQGTKVEI
notes: map of gB-93k deposited here as EMD-22519; I53 of the VL chain is named; also called 93k Fab
[1]
  binding result: binds

B2: human neutralizing monoclonal antibody 93k (antibody, V domains shown)
VH: QVQLVQSGAEVKKPGSSVKVSCKASGGTFSNFAISWVRQAPGQGLEWMGRIMPLFVTSTYAQKFQGRVTISADASTSTAYMELSSLRSDDTAMYYCARDITAPGAAPTPLNFYGMDVWGQGTTVTVSS
VL: DIQMTQSPSTLSASVGDRVTITCRASQTISTWLAWYQQTPRKAPKLMIYKASILENGVPSRFSGSGSGTEFTLTISSLQPEDFATYYCQQYKSYPWTFGQGTKVEI
notes: variable part as the heavy chain of m12; as the light chain of m12; Human IgG (detected with anti-human IgG); also called mAb 93k
[2]
  binding result: binds

B3: VZV gB ectodomain used for X-ray crystallography (domain or fragment, varicella-zoster virus (Oka strain), UniProt Q4JR05 72-736, looked up)
chain: VSPSSFYESLQVEPTQSEDITRSAHLGDGDEIREAIHKSQDAETKPTFYVCPPPTGSTIVRLEPPRTCPDYHLGKNFTEGIAVVYKENIAAYKFKATVYYKDVIVSTAGAGSSGTQITNRYADRVPIPVSEITDTIDKFGKCSSKATYVRNNHKVEAFNEDKNPQDMPLIASKYNSVGSKAWHTTNDTYMVAGTPGTYRTGTSVNCIIEEVEARSIFPYDSFGLSTGDIIYMSPFFGLRDGAYREHSNYAMDRFHQFEGYRQRDLDTRALLEPAARNFLVTPHLTVGWNWKPKRTEVCSLVKWREVEDVVRDEYAHNFRFTMKTLSTTFISETNEFNLNQIHLSQCVKEEARAIINRIYTTRYNSSHVRTGDIQTYLARGGFVVVFQPLLSNSLARLYLQELVRENTNHSPQKHPTRNTGSGGSVPVELRANRTITTTSSVEFAMLQFTYDHIQEHVNEMLARISSSWCQLQNRERALWSGLFPINPSALASTILDQRVKARILGDVISVSNCPELGSDTRIILQNSMRVSGSTTRCYSRPLISIVSLNGSGTVEGQLGTDNELIMSRDLLEPCVANHKRYFLFGHHYVYYEDYRYVREIAVHDVGMISTYVDLNLTLLKDREFMPLQVYTRDELRDTGLLDYSEIQRRNQMHSLRFYDIDKVVQ
modifications: N-linked glycosylation (sites in S4 Table)
notes: VZV glycoprotein B (ORF31), Oka strain, codon-modified; residues 72-736, without the 71 amino acid signal peptide; residues 115-736 resolved in the crystal; also called truncated gB; truncated VZV gB; source: HEK293 GnTI- cells, transiently transfected (pCMV-III), purified (Ni-NTA, ion-exchange, Superdex 200)
[3]
  stoichiometry N: 3

B4: native, full-length VZV gB purified from VZV infected MeWo cells (natural protein)
chain: VSPSSFYESLQVEPTQSEDITRSAHLGDGDEIREAIHKSQDAETKPTFYVCPPPTGSTIVRLEPPRTCPDYHLGKNFTEGIAVVYKENIAAYKFKATVYYKDVIVSTAWAGSSYTQITNRYADRVPIPVSEITDTIDKFGKCSSKATYVRNNHKVEAFNEDKNPQDMPLIASKYNSVGSKAWHTTNDTYMVAGTPGTYRTGTSVNCIIEEVEARSIFPYDSFGLSTGDIIYMSPFFGLRDGAYREHSNYAMDRFHQFEGYRQRDLDTRALLEPAARNFLVTPHLTVGWNWKPKRTEVCSLVKWREVEDVVRDEYAHNFRFTMKTLSTTFISETNEFNLNQIHLSQCVKEEARAIINRIYTTRYNSSHVRTGDIQTYLARGGFVVVFQPLLSNSLARLYLQELVRENTNHSPQKHPTRNTRSRRSVPVELRANRTITTTSSVEFAMLQFTYDHIQEHVNEMLARISSSWCQLQNRERALWSGLFPINPSALASTILDQRVKARILGDVISVSNCPELGSDTRIILQNSMRVSGSTTRCYSRPLISIVSLNGSGTVEGQLGTDNELIMSRDLLEPCVANHKRYFLFGHHYVYYEDYRYVREIAVHDVGMISTYVDLNLTLLKDREFMPLQVYTRDELRDTGLLDYSEIQRRNQMHSLRFYDIDKVVQYDSGTAIMQGMAQFFQGLGTAGQAVGHVVLGATGALLSTVHGFTTFLSNPFGALAVGLLVLAGLVAAFFAYRYVLKLKTSPMKALYPLTTKGLKQLPEGMDPFAEKPNATDTPIEEIGDSQNTEPSVNSGFDPDKFREAQEMIKYMTLVSAAERQESKARKKNKTSALLTSRLTGLALRNRRGYSRVRTENVTGV
modifications: N-linked glycosylation (sites in S4 Table)
notes: VZV glycoprotein B (ORF31), parental Oka strain, residues up to 931; 71-residue signal peptide; native gB is cleaved by furin at 491RSRR494 into two fragments; residues 115-736 resolved in the cryo-EM structure; Held in Amphipol 8-35; also called glycoprotein B; native, full-length gB; not shown: V5, C-terminal, cleaved
[4]
  stoichiometry N: 3
